We go through two molecules from paper PMC2666730, “HMGB1/2 can target DNA for illegitimate cleavage by the RAG1/2 complex”.

Series [1] concerns the target T1, HMGB1 Tailless (UniProt P09429 1-163). As to the kind of experiment: EMSA. The following applies: EMSA as in ref 30; binding buffer, salt, pH and temperature not given in the material; scale: fold more protein needed than for bps6197. (In EMSA bound probe runs differently from free probe, usually more slowly.)
The target in series [2] is T2, HMGB1 full-length (UniProt P09429 1-215). Description: EMSA. The following applies: EMSA as in ref 30; binding buffer, salt, pH and temperature not given in the material; scale: fold more protein needed than for bps6197.
The target in series [3] is T2, HMGB1 full-length. As to the kind of experiment: EMSA; 0-320 ng HMGB1; EMSA as in ref 30; binding buffer, salt, pH and temperature not given in the material. The following applies: protein: recombinant; tags: N-terminal His6; label: 5' radiolabel, top strand; blunt.
The target in series [4] is T3, cMR1 (core RAG1, MBP fusion);cMR2 (core RAG2, MBP fusion) (;, UniProt P15919;P21784 384-1040;1-387, |).
T3 sequence 1: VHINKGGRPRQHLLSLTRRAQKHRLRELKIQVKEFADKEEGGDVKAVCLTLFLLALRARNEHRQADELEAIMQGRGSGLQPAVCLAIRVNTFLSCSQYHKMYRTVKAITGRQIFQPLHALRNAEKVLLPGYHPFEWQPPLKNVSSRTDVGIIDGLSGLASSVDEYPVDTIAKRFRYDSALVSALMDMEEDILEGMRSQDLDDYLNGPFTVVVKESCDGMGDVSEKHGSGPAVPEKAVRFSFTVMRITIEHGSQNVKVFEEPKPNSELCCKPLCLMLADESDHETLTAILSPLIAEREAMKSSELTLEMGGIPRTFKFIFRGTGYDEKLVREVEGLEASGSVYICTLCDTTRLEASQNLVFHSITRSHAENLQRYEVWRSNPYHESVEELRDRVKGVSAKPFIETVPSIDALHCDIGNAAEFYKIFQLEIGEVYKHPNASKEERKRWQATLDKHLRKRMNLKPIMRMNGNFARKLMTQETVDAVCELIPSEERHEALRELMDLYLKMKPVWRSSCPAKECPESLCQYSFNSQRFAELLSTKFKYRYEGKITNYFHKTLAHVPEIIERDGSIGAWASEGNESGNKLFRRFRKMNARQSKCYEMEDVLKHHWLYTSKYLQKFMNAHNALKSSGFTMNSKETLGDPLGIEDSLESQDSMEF
T3 sequence 2: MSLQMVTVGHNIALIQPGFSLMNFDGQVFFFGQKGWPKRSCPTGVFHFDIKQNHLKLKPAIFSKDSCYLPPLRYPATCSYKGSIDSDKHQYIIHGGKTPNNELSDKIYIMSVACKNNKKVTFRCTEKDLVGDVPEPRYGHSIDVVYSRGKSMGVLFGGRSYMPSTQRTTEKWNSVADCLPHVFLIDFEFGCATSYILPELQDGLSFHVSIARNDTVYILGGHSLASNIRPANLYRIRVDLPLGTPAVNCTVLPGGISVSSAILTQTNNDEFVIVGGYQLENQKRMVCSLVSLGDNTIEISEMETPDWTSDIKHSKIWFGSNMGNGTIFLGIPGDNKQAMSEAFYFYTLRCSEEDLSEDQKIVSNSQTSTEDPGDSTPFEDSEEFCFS
Description: EMSA; without HMGB1; similar to 23-RSS, slightly more susceptible to cold 23-RSS; EMSA as in ref 30; binding buffer, salt, pH and temperature not given in the material. The following applies: protein: recombinant;recombinant; tags: N-terminal MBP;N-terminal MBP; chain copies: 2;1; label: 5' radiolabel, top strand; blunt.

The target of series [5] is cMR1 (core RAG1, MBP fusion);cMR2 (core RAG2, MBP fusion);HMGB1 full-length (;;, UniProt P15919;P21784;P09429 384-1040;1-387;1-215, ||). As to the kind of experiment: EMSA; with HMGB1; similar to 23-RSS; EMSA as in ref 30; binding buffer, salt, pH and temperature not given in the material. The following applies: protein: recombinant;recombinant;recombinant; tags: N-terminal MBP;N-terminal MBP;N-terminal His6; chain copies: 2;1;1; label: 5' radiolabel, top strand; blunt.

The target in series [6] is T1, HMGB1 Tailless. Description: EMSA; 0-140 ng tailless HMGB1; EMSA as in ref 30; binding buffer, salt, pH and temperature not given in the material. The following applies: protein: recombinant; tags: N-terminal His6; label: 5' radiolabel, top strand; blunt.

T2 sequence (P09429 whole entry): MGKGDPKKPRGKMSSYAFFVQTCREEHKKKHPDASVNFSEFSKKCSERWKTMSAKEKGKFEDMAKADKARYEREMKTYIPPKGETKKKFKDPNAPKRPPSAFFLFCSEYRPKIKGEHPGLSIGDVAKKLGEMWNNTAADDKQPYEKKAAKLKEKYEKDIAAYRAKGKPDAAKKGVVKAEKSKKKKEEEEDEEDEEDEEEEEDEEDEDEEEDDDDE
T1 sequence (P09429 1-163): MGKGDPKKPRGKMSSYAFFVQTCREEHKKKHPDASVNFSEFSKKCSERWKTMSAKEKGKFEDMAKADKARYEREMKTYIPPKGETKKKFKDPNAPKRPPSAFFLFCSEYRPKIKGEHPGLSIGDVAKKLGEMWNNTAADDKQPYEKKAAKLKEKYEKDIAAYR
Chain of cMR1 (core RAG1, MBP fusion);cMR2 (core RAG2, MBP fusion);HMGB1 full-length (P09429 whole entry, the tested form may be a part, one chain of several): as the sequence (P09429 whole entry) above

Regarding 23-RSS (consensus), the binding signal with HMGB1 Tailless [1] and with HMGB1 full-length [2] was 1.5 each time.

B1: bps6197 (dsDNA)
DNA 1: TCCCCGAAAAGTGCCACCTGACGTCTAAGAAACCATTATTATCATGACATTAACCTATAAA
DNA 2: TTTATAGGTTAATGTCATGATAATAATGGTTTCTTAGACGTCAGGTGGCACTTTTCGGGGA
In the case of B1, the binding signal with HMGB1 full-length [3] and with HMGB1 Tailless [6] was ~1.5 fold less protein needed than for 23-RSS in each case. Further, the binding result in series [4] and in series [5] was “binds” throughout.
